# Experimental data: patent publication US20230312735A1 (IMMUNOGEN, published 2023)
# Molecular target: T1, human CD123 (interleukin-3 receptor alpha subunit) (human, UniProt P26951 19-378)
# T1 construct: Native CD123 on patients' cells; also called IL-3Rα; Interleukine-3 Receptor alpha
# Experiment: average CD123 receptor saturation on patients' cells after intravenous IMGN632, Schedule A, Cohorts 1-6 (method not described)
# T1 sequence (P26951 19-378 limits assumed): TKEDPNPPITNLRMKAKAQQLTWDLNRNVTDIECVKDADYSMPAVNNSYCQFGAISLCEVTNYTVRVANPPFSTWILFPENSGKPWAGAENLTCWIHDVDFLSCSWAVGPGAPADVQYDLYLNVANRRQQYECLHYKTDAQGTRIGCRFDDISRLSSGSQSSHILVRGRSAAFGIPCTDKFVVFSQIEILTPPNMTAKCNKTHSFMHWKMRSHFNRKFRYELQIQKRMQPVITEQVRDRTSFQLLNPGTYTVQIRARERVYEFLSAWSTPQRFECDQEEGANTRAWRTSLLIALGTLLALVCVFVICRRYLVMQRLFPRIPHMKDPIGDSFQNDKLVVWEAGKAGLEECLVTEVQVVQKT
binder,measurement,value
"IMGN632 (immunoconjugate of the anti-CD123 huCD123-6Gv4.7 antibody linked to DGN549-C) (antibody, V domains shown, DGN549-C cytotoxic agent (peptide linker) covalently linked through a cysteine residue (huCD123-6Gv7-C442 heavy chain); average of 1.5 to 2.1 DGN549-C per antibody, mostly the sulfonated form, also called anti-CD123 immunoconjugate; G4723A-DGN549-C) VH: QVQLVQSGAEVKKPGASVKVSCKASGYIFTSSIMHWVRQAPGQGLEWIGYIKPYNDGTKYNEKFKGRATLTSDRSTSTAYMELSSLRSEDTAVYYCAREGGNDYYDTMDYWGQGTLVTVSS VL: DIQMTQSPSSLSASVGDRVTITCRASQDINSYLSWFQQKPGKAPKTLIYRVNRLVDGVPSRFSGSGSGNDYTLTISSLQPEDFATYYCLQYDAFPYTFGQGTKVEIKR",binding result,binds
